The data set has as its system MS2 coat protein. Briefly: apparent KD of MS2 coat protein; designed switch direction (-1 OFF switch, 1 ON switch): 1; higher = weaker reporter binding. An outline of the steps: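 For each design, the apparent KD is the median over clusters of curves fitted to normalised cluster fluorescence. Clusters held RNA switches with common flanks, transcribed on Illumina chips by stalled E. coli RNA polymerase. These were titrated with SNAP-549-labelled MS2 coat protein, doubling from 0.7 or 1.5 nM to 3 µM, without input, with 200 uM small-molecule ligand, or with an oligonucleotide input.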

The mark [1] stands for this setting: input ligand: microRNA oligo, concentration not stated.
[2] abbreviates: Eterna round: R95, input ligand: FMN 200 uM.
[3] abbreviates: Eterna round: R95, input ligand: microRNA oligo, concentration not stated.
The mark [4] stands for this setting: Eterna round: R95, input ligand: none.

As for “AUUUUAAAUGCAGGAUAUGAUUAACAUGAGGAUCACCCAUGUGGUGUUGUGAGUAAGGAGAGUGAUCAGAAGGGCAUUUUUUUU [JMF's solution 95] (Eterna round: R96, puzzle: Same State NG 2)”, the “apparent KD of MS2 coat protein” value reads like this: (input ligand: FMN 200 uM) 0.748 µM; under setting [1], 0.546 µM; (input ligand: none) 0.714 µM.
For the sequence “CAAACUUAGUAGGAUAGGUACCCAGGAUGACAUGAGGAUCACCCAUGUAAGAGCUUUUUGCUCGUCAUUAACAGUUG [JR_SHM208a_Sub017] (puzzle: Sensor for hsa-mir-208a)”, the “apparent KD of MS2 coat protein” value reads like this: under setting [2], 0.0517 µM; under setting [3], 0.053 µM; under setting [4], 0.0783 µM.
Consider “CAAACUUAGUAGGGUAGGUACCCAGGACGACAUGAGGAUCACCCAUGUAAGAGCUUUUUGCUCGUCGUCAACAGUUG [JR_SHM208a_Sub019] (puzzle: Sensor for hsa-mir-208a)”, for which the “apparent KD of MS2 coat protein” value stood at 0.0198 µM under setting [2], 0.0225 µM under setting [3] and 0.0198 µM under setting [4].
As to “CAAGGACGGACACAGGAUAUCCUCACCUACACAUGAGGAUCACCCAUGUCAUAAAAGAUGGUGCAGGAGAAGGGUGCGGCGUCAA [Zarelaesdi] (puzzle: Same State 2)”, the “apparent KD of MS2 coat protein” value reads like this: under setting [2], 0.00793 µM; under setting [3], 0.00832 µM; under setting [4], 0.00636 µM.
Take “CACAUGAGGAUCACCCAUGUGAGGCGGCAAUAAAACCGCGCACAGGAUAUAGCGCUAAGAAAGCGCUAGAAGGGUGAUUAGAAC [Gerelabies] (Eterna round: R96, puzzle: Same State NG 3)”: the “apparent KD of MS2 coat protein” value is, setting by setting: (input ligand: FMN 200 uM) 0.712 µM; under setting [1], 0.0208 µM; (input ligand: none) 0.0711 µM.
On to “CAGCGCUGUCGAGAGGAUAUGCGGUGAUGGACAUGAGGAUCACCCAUGUUAGCGAUGGCAUUACGGUAGAAGGCUCUACAGCUGC [Soteed - 4] (puzzle: Same State 2)”, for which, under setting [3], the “apparent KD of MS2 coat protein” value amounted to 0.026 µM.
Still for that read-out and setting: as for “CAGUGCUGUUGAGAGGAUAUGCGGUGAUGGACAUGAGGAUCACCCAUGUUAGCGACAGCGUUACGGCAGAAGGCUCUACCCACUG [Soteed Omei mod 48] (puzzle: Same State 2)”, the figure is 0.0391 µM.
Consider “CAUACGCGGAGAGGAUAUCGCAGGGUAACGGUAAGUGCCCGAUGACAUGAGGAUCACCCAUGUAUCGAGAAGGCUCCUCACCCU [Eternabot solution 22] (Eterna round: R96, puzzle: Same State NG 2)”, for which the “apparent KD of MS2 coat protein” value (input ligand: FMN 200 uM) stood at 0.0106 µM, the “apparent KD of MS2 coat protein” value under setting [1] is 0.0079 µM and the “apparent KD of MS2 coat protein” value (input ligand: none) was determined as 0.0151 µM.
Regarding “CCCGCGUUUCGCGCCUACAUGAGGAUCACCCAUGUUUGUAGGCAGGAUAUCGUCCGCUCUGCGGGCGAGAAGGGCUGUUGUGGU [salish99_SSNG3_R04_029] (Eterna round: R96, puzzle: Same State NG 3)”, the “apparent KD of MS2 coat protein” value under setting [1] is 0.0729 µM.
As for “CCGAUAAUAGGACAGGAUAUGACUGUCGUCACAUGAGGAUCACCCAUGUCCCGGCAAUGCCACCGUUAGAAGGGUCCUAUCUCGA [Maeded] (puzzle: Same State 2)”, the “apparent KD of MS2 coat protein” value under setting [3] was 0.0135 µM.
Consider “CCGGGUAAUGGAGGAUAUGGAGCCUUAUUGGCUCCAGAAGGCUAACAUGAGGAUCACCCAUGUAGUCCGGCGGUCAAUAGACCG [Eli NG1ss - 66] (Eterna round: R96, puzzle: Same State NG 1)”, for which the “apparent KD of MS2 coat protein” value by setting is: (input ligand: FMN 200 uM) 0.0105 µM; under setting [1], 0.0132 µM; (input ligand: none) 0.0192 µM.
In the case of “CCGUUGAUGGGACAGGAUAUGACUGUCGUCACAUGAGGAUCACCCAUGUCCCGGCAAUGCCACCGUUAGAAGGGUCCCGUCUCGG [Edraedbibe] (puzzle: Same State 2)”, the “apparent KD of MS2 coat protein” value under setting [3] came out at 0.012 µM.
As to “CGACACACGGCAGGAUAUGCUUAGCAAAGCUAAGCAGAAGGGCCUCAUGUCGUGGAAACGUGACAUGAGGAUCACCCAUGUUGC [Omei SS(NG)1 Cv1] (Eterna round: R96, puzzle: Same State NG 1)”, the “apparent KD of MS2 coat protein” value (input ligand: FMN 200 uM) is 0.021 µM, the “apparent KD of MS2 coat protein” value under setting [1] was determined as 0.00559 µM and the “apparent KD of MS2 coat protein” value (input ligand: none) was found to be 0.0363 µM.
As to “CGCCAGAGAGCAGGAUAUGGGCCACGGCCUAAGGGCUGUGGACUCACAUGAGGAUCACCCAUGUCCCAGAAGGGCUCCUGGCUA [Usarbebi] (Eterna round: R96, puzzle: Same State NG 2)”, the “apparent KD of MS2 coat protein” value was 0.0181 µM (input ligand: FMN 200 uM), 0.128 µM under setting [1] and 0.174 µM (input ligand: none).
For the sequence “CGCUGCGUUUCAUAGGAUAUGUGGUUUUGAACAUGAGGAUCACCCAUGUAGACGUCAAUGGCUCCACAGAAGGGUGACACUAGUG [Aredis] (puzzle: Same State 2)”, the “apparent KD of MS2 coat protein” value by setting is: under setting [2], 0.261 µM; under setting [3], 0.571 µM; under setting [4], 0.908 µM.
Consider “CGGAAACGUCAAGGAUAUGCUACCGUUUCGGUAGCAGAAGGUGAUCACAUGAGGAUCACCCAUGUAUGCAUGCGUGAGCGUGCU [JL SSNG1 3.56] (Eterna round: R96, puzzle: Same State NG 1)”, for which the “apparent KD of MS2 coat protein” value came out at 0.206 µM (input ligand: FMN 200 uM), 0.187 µM under setting [1] and 0.177 µM (input ligand: none).
For the sequence “CGGCGCUGUCGAGAGGAUAUGCGGUGAUGGACAUGAGGAUCACCCAUGUUAGCGAUAGCAUCACGGUAGAAGGCUCUACGGCCUG [Soteed Omei mod 22] (puzzle: Same State 2)”, under setting [3], the “apparent KD of MS2 coat protein” value came to 0.0523 µM.
With “CGGGUACAUGAGGAUCACCCAUGUGGAAGAGAUGCAGGAUAUGUGGGAAAAGGGAAUGUAACAGAAGGGCAAGGAG [JR_SS!_Sub016] (puzzle: Same State 1)”, the “apparent KD of MS2 coat protein” value reads like this: under setting [2], 0.0534 µM; under setting [3], 0.0641 µM; under setting [4], 0.144 µM.
For “CGGGUACAUGAGGAUCACCCAUGUGGGAGGGAUGCAGGAUAUGUGGGAGGAGGGUAUGAAACAGAAGGGCAAGGAG [JR_SS!_Sub012] (puzzle: Same State 1)” the same measures were 0.0467 µM, 0.0489 µM and 0.0655 µM.
Turning to “CGGGUGAUCGUAGGAUAUCUAGGAUAUGAACGAGGAUCACCCGAGCAGCAUCAGCGCAUCAGAGGAGAGAAGGACGAUCAUGCG [pwkr ssNG2 2F5 2FMN.7] (Eterna round: R96, puzzle: Same State NG 2)”, the “apparent KD of MS2 coat protein” value by setting is: (input ligand: FMN 200 uM) 0.326 µM; under setting [1], 0.0129 µM; (input ligand: none) 0.0591 µM.
Take “CGUAGGUAGCUGGAGGAUAUUCGAGUGGUAACAUGAGGAUCACCCAUGUGGAGAGAGGAACAUGAGGAGAAGGCUAGCUGCCUGC [JL-ss2-3.19 JL mod] (puzzle: Same State 2)”: the “apparent KD of MS2 coat protein” value turned out to be 0.00836 µM under setting [2], 0.0217 µM under setting [3] and 0.0167 µM under setting [4].
For the sequence “CGUCCAGCCUGAGCUGGACAAAAGCAUGUACAUGAGGAUCACCCAUGUUCAUGUACAAGCUUUUUGCUCGUCUUACC [salish99_208a_r3_094x] (Eterna round: R96, puzzle: Sensor for hsa-mir-208a)”, the “apparent KD of MS2 coat protein” value is, setting by setting: (input ligand: FMN 200 uM) 0.76 µM; under setting [1], 0.0143 µM; (input ligand: none) 0.752 µM.
“CGUCCAGCCUGAGCUGGACAAAAGCAUGUACAUGAGGAUCACCCAUGUUCAUGUACAAGCUUUUUGCUCGUCUUACC [salish99_208a_r3_094x] (puzzle: Sensor for hsa-mir-208a)”: the “apparent KD of MS2 coat protein” value under setting [2] turned out to be 0.638 µM, the “apparent KD of MS2 coat protein” value under setting [3] stood at 0.0159 µM and the “apparent KD of MS2 coat protein” value under setting [4] worked out at 1.01 µM.
Consider “CGUCCGGCCUGUGCUGGCCGGUGGCUUGUACAUGAGGAUCACCCAUGUUCUUGUGCUGGCGUUUUGCUCGUCUUGUG [salish99_mir208a_r3_020] (puzzle: Sensor for hsa-mir-208a)”, for which the “apparent KD of MS2 coat protein” value was determined as 0.0282 µM under setting [2], 0.0207 µM under setting [3] and 0.0325 µM under setting [4].
On to “CUAAAACAUGAGGAUCACCCAUGUCAACAAAGUCGAGGAUAUGGGCAAAUAAAAUAAGAACCAGAAGGCGAAUAAA [salish99_SS1_r3_015] (puzzle: Same State 1)”, for which the “apparent KD of MS2 coat protein” value came to 0.0428 µM under setting [2], 0.518 µM under setting [3] and 0.518 µM under setting [4].
Consider “CUAGGAGGAUGAGGAUAUGCAGAGGAUCACCCUGUAGAAGGCAAGAGAUGAGGAUAUGCAGAGGAUCACCCUGUAGAAGGCAAC [pwkr ssNG DX.1] (Eterna round: R96, puzzle: Same State NG 1)”, for which the “apparent KD of MS2 coat protein” value is, setting by setting: (input ligand: FMN 200 uM) 0.307 µM; under setting [1], 0.0865 µM; (input ligand: none) 0.122 µM.
As for “CUAUCUACAGGUGUCUUUGCUCGUUUUAUACAUGAGGAUCACCCAUGUUAUAGCCCGGUGCUUGCGCUGGGCUGAUU [JL ViennaUCT Tearor mod 7] (puzzle: Sensor for hsa-mir-208a)”, the “apparent KD of MS2 coat protein” value runs as follows: under setting [2], 0.1 µM; under setting [3], 0.0155 µM; under setting [4], 0.0953 µM.
“CUGAGAUGUCAAGGAUAUCACGUCGAUUAGACGUGAGAAGGUGAUCAGUACAUGAGGAUCACCCAUGUGUUACAUGGAACUCAG [Brourd's SSNG1/1-A2 mod 9] (Eterna round: R96, puzzle: Same State NG 1)”: the “apparent KD of MS2 coat protein” value is, setting by setting: (input ligand: FMN 200 uM) 0.868 µM; under setting [1], 0.102 µM; (input ligand: none) 0.571 µM.
“CUGAGCGAUCAAGGAUAUCACGUCGAUUAGACGUGAGAAGGUGAUCCAUACAUGAGGAUCACCCAUGUAUAACAUGAAGCUCAG [SSNG1/8-A2] (Eterna round: R96, puzzle: Same State NG 1)”: the “apparent KD of MS2 coat protein” value (input ligand: FMN 200 uM) worked out at 0.414 µM, the “apparent KD of MS2 coat protein” value under setting [1] is 0.507 µM and the “apparent KD of MS2 coat protein” value (input ligand: none) was determined as 0.861 µM.

(Values after the supplement of paper PMC9170038.)
